Source: the domain aggregation screens of Martell et al. (2025)

Assay: soluble fraction after stress (log2 fold change); higher = more stays soluble; pooled small domains, quantitative proteomics
Details: stress: pH 4
Summary of the method: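 Aggregation propensity is estimated from the fold change in each domain's soluble amount after acid stress. Pooled small-domain libraries were stressed at pH 4, and higher log2 values mean more stayed soluble.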

Row | Sequence | soluble fraction (log2)
1 | HMPYPSPADLARMDELIAWVKDEGRLPRDRSGQRSERSMARWLAARRREAAEGTLDPAYRDGLAQVPGWR | -0.304
2 | HMDRAIAAHLEARVRDALKQLSPEQTRVIELFFFDNKTHAEIENDLKIPLGTVKSRLRLALNKLRASL | -0.234
3 | HMDFDFHALGREIKRKRKDKGWTQEYLAQLLDRTPRSIMYMENRGQHPSLNILFKIATLLEISIDQFFF | 0.158
4 | HMRPTAWDQISDWLDRHGSIANADVVRIAGLDTLKASKLLTTWREQGLLEPLPGRGKRNMAYVRAI | 0.12
5 | HMHSDSEIEKGYTDDGQKLSNVNGVYMTKSEMYNKGIVEKDPNTGEEVMGRNRVNPVTGELE | 0.204
6 | HMAELVISVKADGTIHYQDRQLTKEALAAVLETRPEALLNLYVDEKAPFEAFVGVVDIARLKRGGHFVIST | -0.947
7 | HMKNLHLVPNVVGMSAKEAKNTLKSFNIKYKPIYGSSNKYDENYIFNQNPRKGKTIKEQEVVTIYISRGAD | ≥ 0.43
8 | HMITPKQTAETLGIATSTLRRWASEFEPFLSLRTGVKRTYTTDDITTLKRVKDLFAQGLKTEQVREAL | ≥ 0.43
9 | HMLETADDAKRFLGAIISEKKAENLLRVYPDIIERIVAGKPVDLSLVKGIKQKTFDKLRQKVISHYSMY | -0.0382
10 | HMYRYTTFKVKEADTLLPFIQKSLNGISHNRAKAILTGGGVLVDKKITRAYDFALRPGMTVEISKSKP | ≥ 0.43
11 | HMIHIGAQEALGEFQDEEGNLTASKKEVVAALVKKSKEVSFPTSYEYEVAARMAADEYNDAGQRMA | -0.079
12 | HMENFDNIFDQRLMPSLFIIRNINQAIENNNNNKFLLNSTISMKDKHWIEIHPHHLKLIISGYQT | -0.54
13 | HMDRPLRTKEHFARFAGEQVVVKTSSPIDGRSSFTGTLEGMEGDDVIVEVDGSRIAIGYSLIKRAHVVG | 0.406
14 | HMAKDSQSADVLQAIFDGSKVLNGLALDQDMRWDLINGLVMSGRLGVEAIEAEAAKLAKLVEELEFR | -1.21
15 | HMLFRGNGFNTLYDKQLRITQQGEFKDGRLWDGKYYRYSKAGELVRIEIYEQGRYAGNGVITDEDKA | -0.0519
16 | HMNPSVSSDERILLQKALGILSAEQKQIVMLHAVAGIKHREIAKLLDMPIATVLSKYSRAVNKLRHAMEA | -0.298
17 | HMKELLTKQQREEILETVKTKTPKDFGYTAEHWTTGFLGKWIEEHYEVEYKSKTSLYLVFKKASFTYHKPG | 0.0606
18 | HMTAGYFTRGSHQDEVLRIQGTPSGVNKYSDHEVWNYGLSSVDISLRDRRVTEWNNISGNLKV | -0.35
19 | HMELADNFAKLILTARESKGWTQAQLGQRMAETINVIKSAESGKPPADSVIRKFEMILGIELM | -0.121
20 | HMNGQFIELKNTTGTIIEARVLSFQNGKVKLQRNDGLIFVASISIFDSESIEVIKQKVAEISESKKS | -0.0246
21 | HMSLGTDVVPDFTGKGIKEAKTEFAAYSEGELYIIGEGEKVKEQFPLPGEKVNKNSDLILYV | 0.0276
22 | HMNEFSYLSELGSEKGDLIKGLQLVQSREGYVSDDAIRAISKHFSIAEAEVEGVLTFYAQFK | -1.25
23 | HMQDRDKNIEEGRQLVLHEMDRLDLVDEPLHDVARQLNMKAVEDMFAAVGAGDLRLGQIIHQLLKQADTN | -1.11
24 | HMASIGVGTIVRVANAVNYNGVKVKAWFNDEGYEVTELSGDRAVLKHNGDLFDAFHVSDLEA | -0.771
25 | HMDVPTEEAILAYNNVPIELAAKFIGWSDITIRYALQEERAPFGMAAQNPKTGTWSYNISPGLLLKYKSGE | -0.39
26 | HMSMRILNHTVVKILKRYRIATDEQLQPLLDEAERSGRSLQDVVLDAKLVSETELTKLFADYAD | 0.421

Row | Sequence | soluble fraction (log2)
27 | HMFPSLSPEEQAVVDVLQRNNDLQINMLSVQSGLTISRLTALLFQLEMKGVIKPLAGGMYHLL | -0.493
28 | HMSQPALSYAFAKAQGVIVTALGDVAEVARRKGSQPQALAEVRRIAGRPLALREVDDAAFDRLLQDHYARS | -0.0203
29 | HMDLMSTNEKLLYTMRYLISKSLDGAITEEEIRRLDRLIIENSQARAYYVEYLQIHTHLRKLMQQNPELK | -1.15
30 | HMSKEKQILQLLQHGYSQRRIADTLSVSRNTVAKVAKAAIEHPVSSDSLDSIDELELHQKLFPEEVLI | -0.184
31 | HMEIGLIRVDSRLIHGQVITKWLNYSKANVIVVVDDELSKDSFMSEIYKASAPNGIIVEILSIDDFMKNT | -0.142
32 | HMTLPELTDRELQILQLLSVGNSSQKIAKQLNISTHTVSTHRKQLLRKLGAQNGADLIRRAQKLGIL | 0.0897
33 | HMSYQSYDKVVGDTFFEANLKAESKFGKGNFEIISTRRVKHPIYLGFGHKELVELTIGIHDP | -0.302
34 | HMLIADSDALRSQIESILNGNPNEVASFRAGKESLMGWFVGQVMRSTGGKADPKRTRELLQELLTK | -0.0841
35 | HMSGEDYLERILMLKEKHGNVRAIDIANSMNFSKPSVSIALHKLSENGYVVIQNNGAIELTEKGLEVAT | -0.0506
36 | HMYEDNERNLYSVVINFLNEHKIKISREAINLVINRSSGDKHNLKQELNKILNYSFSNKNITYETIEKLSN | 0.0456
37 | HMAKRKTEKTSVLEEIDGVGKARARALLARFGGLSGVKAASPEELRTVRGITPEIAENIRRYFQ | 0.134
38 | HMAVSGRMMVYEYIRQQMREGSLLPGSVLDLPAISHKLGISNTPLRDSLIRLEAEGYLTIYPRSKVVIN | -0.254
39 | HMRSASFDIMSQKQSDATLGYERVYDTETNEVYKAYNGFTDDYDGERYKSISDNMYTKGISGYIEK | -0.151
40 | HMQFLGKVTVTHARQANLRAQPSMDAAIVGKVNPGEVYNVVSIPKTSWYEIQLQNGKTVFIAAGMVSFRM | 0.209
41 | HMGQHSAELKLHPQDLGQVTISMKVEDNQAQLQMVSGHGHVRAALEAALPQLRSQLADSGIQLTQSSIS | -0.223
42 | HMNIGEKIKTLRENNNISIEELAEKINDSIENILKYENNELEPTLDKKLALSIALGVTLSDLS | -0.975
43 | HMVNPHPVYRSWGLLYVEARDGDSLESIAKEFGFSVKKLAKYNEVPKDYPLEAGDIVYLEKKKK | 0.019
44 | HMSWGDVKLTMWGAEEDQTMLREMADAFIEQNADKGNVTIEIGVQSESSAKDTVLADPESAADVFA | -0.106
45 | HMIPSGISEHPISKLPLSMSIIHRLELAGIKTIGDITGENFSRLQEIPRIGKVTAKRILEAIQSYSEQLP | -0.273
46 | HMRITEGEIVEIQEGDNRALVGVGEKLEGIISLDEIRGADGKLLFNVGDKITVMVMGHYNERPK | -0.429
47 | HMKSKPRVPFGSLVEMGILKPGSILFDPKGKIKTKVMVDGSIKYKETEGSIHKVAAQIMGTESYNGWTYW | -0.0629
48 | HMQQELEEMESGNLVRTAIDSLPINQRTAFILSAYEELPIKEIASIMNRSEGAVEQLLQRAKMNLKKKIK | -0.0659
49 | HMNLNLDITTYKLEELENLLKLKPNYKQEQIFEAKTKMEKFILKSNLNESKREELYIFLDNIYNKLTNNLL | -1.34
50 | HMIIIPKKDYDVSQLDNLVSWLKDRGLEVHISRGENLTVIGLIGDTSKIDIDLIRSLDVVEEVKRIQ | -1.31
51 | HMNHGDATTETQAEIMAILSDMKPHPITELNTIKRPYEQIDTALTYLINEEKIYRMDGMIFIG | -0.915
52 | HMGKVNGFEITVIEGKNVVGSITPRQAIAKNSDGVIQLRGEQSFSATDQVLINELAFYIKSNNLKA | -1.23

Row | Sequence | soluble fraction (log2)
53 | HMTQEFIVPKVTGYTVEDAMNLSGVKDVFEITVDSTEKSDQPAGIILFQDPKDGSSRKSDLVIHVVVSAGS | 0.0901
54 | HMSAIKSVTTQLDNTKLRTGPDVSYQYTQSYPANTKLTYINKSGTWYQVKDADGNTGYVASWVVTPSE | 0.387
55 | HMTNNFIVTWRNYNEEVLEIDVNVKKGSMPKYNGKTPEREGYQFVGWDPEITEVTKDITYVAQFM | -0.0457
56 | HMDETPESIFAKANELYPKYIKYFYTEQEYYSKVEEYINLYEFQKNSTYILGKDLEEFLEEYITNKQ | -1.51
57 | HMKPTSLLGIERYLGSGLIRGVGPSTAKQIVEHFGMETMEVLTEHPERLQEVHGMGRKRWRQIAESFQEQQ | -0.0617
58 | HMEIELHNLALNIKEFRKKNKLSQAELAEKLGVARTTIGYYERAEVEPNIYTLVQLSKLMNRSIDSLLGL | -0.0684
59 | HMDGLDFIINENGKIANINEEGELLAKGENIMLGYYKDSISTNNTINNGWLHTGDIAKIDNDGFIYL | -0.123
60 | HMDIVKVYTTARAGETLASVAKRTGVDVARLAQWNDIPLKRAKQKLKTGKALALWVQREHASAYSNAPP | 0.22
61 | HMQISDTSELEAVVQDILKANMDVVAKIKAGKTNSANFLMGQVMKLTKGRAKPDTVLQLILDAVKQ | -0.374
62 | HMFLTDHEVSKVARKRAHAEYLSSLSWRQRTFGDHGERSKNFEAWYKEHSHLYETEKLYKELYKN | 0.245
63 | HMRASQGRNELILSLLRGHELSILELLEGLEKQGVRVARPTLTKDLNELVSRGSVEATAPPRSKNRTYRIP | 0.302
64 | HMPRFDINFKVGEVVTIKGGSFDGQQGEISEIDHEHGKIKVMLEVLGRLTPVEVEHTEIEKI | -0.623
65 | HMQTTEDMEINAKVDEYLREMYLWNDEYKTLNLDHNKGYEDFFYDALGSMTTNTLDKKTYVGSDGKTYYNL | -0.933
66 | HMNSHLEEGRHGLQIGDPGIVRARIESDPEGETDMPVVVIDGRNISWNEFGRMVATYTGFQFKLEM | -0.58
67 | HMASPTKQLVLEALRASGQPMSSMELSAQIGVSRATAQRYLSTLASAGEVKIQLRYGTTGRPEQEFLAIE | 0.22
68 | HMDITTIIADVPGPKTQIKVDIKNTSLHIFGGMNFKKEIDIGDNKEIINIKYINGTLTVKLKT | -0.466
69 | HMEMKMGHIISKLRYESGYSQVELAEKIGITKGAVGMYETDKRKPDYDTLIKLADLFNVSTDYLLS | -1.31
70 | HMKTQFGTIVKQLRERKGMDQKQLGEIVGVSDKTVSSWEINRTEPKMGIVQQLADYFGVSTDYLIKG | 0.00995
71 | HMVPVQLTPRELQVARLAAHGASSPEIAAELRVSRRTVDNQLGRVYAKLGIAGRAELAAALSRLPVSV | ≥ 0.43
72 | HMLRRNQVQSQVIPRENGSYVVELQLRDDVDSILRLELTAATEAMARDLADRFRQDPEGVYTRLLSALY | -1.57
73 | HMNGYGALVRLGRSRGWVTVEEINDHLPESAVRTAENVQEITEALGRLSIKVFETRPDEDDLLIT | -0.613
74 | HMDTMQQESMDTKSILATALMELTSRKNFAKITIADITHVSGFNRQTFYYHFRDKYELLSWIY | -0.117
75 | HMPSRPIQVASFSKEDNAKRAAEALAKIGVTATPQKSEKAGKAVWGVVVTGDDAMLQKIKDAGFADAYFL | 0.22
76 | HMNDPIGDMLTRIRNAQMRGKSTVSTPASKLRAWVLEVLASEGYIRGFERATTDNGQGELVISLD | -0.253
